B1: BMS20H4.9 (antibody, human IgG4 S228P, kappa, V domains shown)
VH: QVQLQQWGAGLLKPSETLSLTCAVYGGSFSGYYWSWIRQSPEKGLEWIGEINHGGYVTYNPSLESRVTISVDTSKNQFSLKLSSVTAADTAVYYCARDYGPGNYDWYFDLWGRGTLVTVSS
VL: EIVLTQSPATLSLSPGERATLSCRASQSVSSYLAWYQQKPGQAPRLLIYDASNRATGIPARFSGSGSGTDFTLTISSLEPEDFAVYYCQQRSNWPPALTFGGGTKVEIKR
notes: Comparator antibody, previously described in U.S. Pat. No. 7,288,638
B2: Antibody A1 (antibody, human IgG1, kappa)
heavy: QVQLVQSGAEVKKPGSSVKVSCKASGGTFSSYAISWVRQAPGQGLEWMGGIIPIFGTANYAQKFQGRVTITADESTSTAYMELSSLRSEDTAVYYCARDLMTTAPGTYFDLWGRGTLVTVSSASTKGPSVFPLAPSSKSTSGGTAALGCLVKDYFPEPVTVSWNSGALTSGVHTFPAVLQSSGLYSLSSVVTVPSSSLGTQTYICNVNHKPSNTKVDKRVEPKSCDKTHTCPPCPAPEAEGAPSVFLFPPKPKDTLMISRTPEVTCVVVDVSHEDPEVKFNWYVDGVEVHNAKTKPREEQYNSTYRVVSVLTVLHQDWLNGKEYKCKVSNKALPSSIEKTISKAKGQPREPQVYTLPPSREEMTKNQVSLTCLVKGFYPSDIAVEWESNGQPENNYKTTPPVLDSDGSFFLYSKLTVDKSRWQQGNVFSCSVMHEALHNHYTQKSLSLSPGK
light: AIRMTQSPPSLSASVGDRVTITCQASQDIGNSLGWYQQKPGKAPKLVIFDASDLETGVPSRFSGSGSGTDFSLTISSLQPEDFATYYCQQGNSFPLTFGQGTRLEIKRTVAAPSVFIFPPSDEQLKSGTASVVCLLNNFYPREAKVQWKVDNALQSGNSQESVTEQDSKDSTYSLSSTLTLSKADYEKHKVYACEVTHQGLSSPVTKSFNRGEC
B3: Antibody A2 (antibody, human IgG1, kappa)
heavy: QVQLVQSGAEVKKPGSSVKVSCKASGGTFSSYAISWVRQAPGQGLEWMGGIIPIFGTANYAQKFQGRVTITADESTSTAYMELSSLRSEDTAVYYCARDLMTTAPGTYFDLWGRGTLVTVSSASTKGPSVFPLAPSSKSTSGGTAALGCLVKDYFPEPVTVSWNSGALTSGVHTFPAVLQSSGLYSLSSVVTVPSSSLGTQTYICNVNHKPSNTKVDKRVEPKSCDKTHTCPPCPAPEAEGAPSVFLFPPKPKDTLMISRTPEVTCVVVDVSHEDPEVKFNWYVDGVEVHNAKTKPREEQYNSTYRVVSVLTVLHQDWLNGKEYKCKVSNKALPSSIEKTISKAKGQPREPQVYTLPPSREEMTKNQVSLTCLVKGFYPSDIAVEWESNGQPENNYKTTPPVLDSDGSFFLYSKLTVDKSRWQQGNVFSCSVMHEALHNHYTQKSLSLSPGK
light: IRMTQSPPSLSASVGDRVTITCQASQDIGNSLGWYQQKPGKAPKLVIFDASDLETGVPSRFSGSGSGTDFSLTISSLQPEDFATYYCQQGNSFPLTFGQGTRLEIKRTVAAPSVFIFPPSDEQLKSGTASVVCLLNNFYPREAKVQWKVDNALQSGNSQESVTEQDSKDSTYSLSSTLTLSKADYEKHKVYACEVTHQGLSSPVTKSFNRGEC

Experiments:
[1] = target: Human CD137 expressed on stable human 293 cells (human, UniProt Q07011 24-255); experiment: cell-based or functional assay
Chain of Human CD137 expressed on stable human 293 cells (Q07011 24-255): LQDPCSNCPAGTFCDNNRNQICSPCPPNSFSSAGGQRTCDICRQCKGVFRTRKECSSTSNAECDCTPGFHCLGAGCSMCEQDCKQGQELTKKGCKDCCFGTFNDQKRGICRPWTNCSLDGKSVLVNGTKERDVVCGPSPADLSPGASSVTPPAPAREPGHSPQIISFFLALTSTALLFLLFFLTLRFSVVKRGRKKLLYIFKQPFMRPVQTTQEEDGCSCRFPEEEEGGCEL

[2] = target: T1, Cynomolgus monkey CD137 expressed on stable human 293 cells (cynomolgus monkey); experiment: flow cytometry on 293 cells expressing cynomolgus monkey CD137, antibody at 0.5 micrograms/mL, MFI against control IgG
T1 construct: whole, on cells; also called Cyno-CD137
Description: The ability of the antibodies disclosed herein to bind to cell surface cynomolgus monkey CD137 can be measured using a flow cytometric assay. Cynomolgus monkey CD137 expressing stable cells are generated by transfecting Cyno-CD137 receptor plasmid DNA into human 293 cells (ATCC) using Lipofectamine™ 2000 reagent (Invitrogen™) per manufacturer's protocol. Stable cells are selected using 0.5 micrograms/mL puromycin in Dulbecoo's Modified Eagle's Medium containing 10% fetal bovine serum and 1% GlutaMAX™. For flow cytometry, confluent adherent cells are detached using Gibco® Cell Dissociation Buffer (Life Technologies), blocked in FACS buffer (phosphate buffered saline containing 3% fetal bovine serum) for 1 h at 4° C., and then transferred into a 96-well round-bottom plate at a density of 1×10⁵ cells/well.
After washing in FACS buffer, secondary antibody R-phycoerythrin conjugated goat anti-human IgG, F(ab′)₂ fragment specific antibody (Jackson ImmunoResearch Laboratories) is added at a 1:200 dilution and cells are incubated at 4° C. for 30 minutes. Cells are washed and live/dead cell staining is performed using LIVE/DEAD® Fixable Far Red Dead Cell Stain kit (Life Technologies) per manufacturer's protocol. […] Flow cytometry data is analyzed using FlowJo® Software. Mean fluorescence intensity (MFI) ratio is calculated as the (MFI of Experimental antibody)/(MFI of the control IgG).

| Binder | NF-kappaB luciferase reporter, max activity [1] [%] | MFI ratio [2] |
| --- | --- | --- |
| B1 | 115 | 0.94 |
| B2 | 63.4 | – |
| B3 | 72.3 | – |
